From PMC3070698

How the values were obtained:
[1] = target: T1, TLR9 tagged at the C terminus with enhanced green fluorescent protein, Q9NR96; test: photon counting histogram (PCH); live HEK 293 cells expressing TLR9-GFP; molecular brightness compared with GFP monomer; two-component global fit with the brightness of GFP monomer and GFP dimer fixed; bin size 50 µs; without DNA, with CpG DNA or with non-CpG DNA; monomer to dimer; conditions: remark: other sources report otherwise
T1 chain: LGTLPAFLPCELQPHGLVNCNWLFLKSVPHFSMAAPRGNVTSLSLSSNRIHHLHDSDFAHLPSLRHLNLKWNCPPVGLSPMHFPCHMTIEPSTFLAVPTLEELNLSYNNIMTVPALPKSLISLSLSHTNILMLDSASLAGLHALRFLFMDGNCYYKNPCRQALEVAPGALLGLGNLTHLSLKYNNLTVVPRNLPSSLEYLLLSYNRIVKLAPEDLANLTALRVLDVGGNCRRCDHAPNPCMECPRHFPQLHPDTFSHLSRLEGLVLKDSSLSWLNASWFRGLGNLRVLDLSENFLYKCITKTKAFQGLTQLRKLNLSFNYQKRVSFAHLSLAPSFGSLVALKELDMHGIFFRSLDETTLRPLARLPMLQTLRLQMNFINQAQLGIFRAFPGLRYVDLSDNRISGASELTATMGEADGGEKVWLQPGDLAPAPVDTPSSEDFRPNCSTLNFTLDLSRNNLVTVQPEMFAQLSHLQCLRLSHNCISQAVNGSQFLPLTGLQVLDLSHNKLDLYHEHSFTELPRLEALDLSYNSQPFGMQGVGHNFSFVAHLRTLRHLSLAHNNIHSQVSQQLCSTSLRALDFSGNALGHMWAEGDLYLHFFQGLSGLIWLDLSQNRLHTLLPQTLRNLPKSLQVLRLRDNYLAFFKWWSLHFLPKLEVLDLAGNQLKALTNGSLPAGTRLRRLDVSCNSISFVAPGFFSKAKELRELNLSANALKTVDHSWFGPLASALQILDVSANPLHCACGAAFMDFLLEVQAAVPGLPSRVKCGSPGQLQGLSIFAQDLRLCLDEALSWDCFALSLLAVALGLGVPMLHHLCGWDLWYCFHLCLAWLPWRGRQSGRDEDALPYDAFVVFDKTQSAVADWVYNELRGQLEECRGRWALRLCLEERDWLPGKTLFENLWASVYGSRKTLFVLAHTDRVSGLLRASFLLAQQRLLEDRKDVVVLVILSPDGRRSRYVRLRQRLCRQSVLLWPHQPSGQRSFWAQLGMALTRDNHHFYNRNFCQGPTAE

[2] = target: T1, TLR9 tagged at the C terminus with …; test: two-dimensional photon counting histogram (2dPCH); live HEK 293 cells expressing TLR9-GFP, incubated with Cy5-labelled CpG or non-CpG DNA; single-component fit; brightness in the green and red channels; bin size 50 µs; conditions: remark: other sources report otherwise

B1: TLR9 tagged at the C terminus with enhanced green fluorescent protein, Q9NR96 26-1032 (receptor)
chain: LGTLPAFLPCELQPHGLVNCNWLFLKSVPHFSMAAPRGNVTSLSLSSNRIHHLHDSDFAHLPSLRHLNLKWNCPPVGLSPMHFPCHMTIEPSTFLAVPTLEELNLSYNNIMTVPALPKSLISLSLSHTNILMLDSASLAGLHALRFLFMDGNCYYKNPCRQALEVAPGALLGLGNLTHLSLKYNNLTVVPRNLPSSLEYLLLSYNRIVKLAPEDLANLTALRVLDVGGNCRRCDHAPNPCMECPRHFPQLHPDTFSHLSRLEGLVLKDSSLSWLNASWFRGLGNLRVLDLSENFLYKCITKTKAFQGLTQLRKLNLSFNYQKRVSFAHLSLAPSFGSLVALKELDMHGIFFRSLDETTLRPLARLPMLQTLRLQMNFINQAQLGIFRAFPGLRYVDLSDNRISGASELTATMGEADGGEKVWLQPGDLAPAPVDTPSSEDFRPNCSTLNFTLDLSRNNLVTVQPEMFAQLSHLQCLRLSHNCISQAVNGSQFLPLTGLQVLDLSHNKLDLYHEHSFTELPRLEALDLSYNSQPFGMQGVGHNFSFVAHLRTLRHLSLAHNNIHSQVSQQLCSTSLRALDFSGNALGHMWAEGDLYLHFFQGLSGLIWLDLSQNRLHTLLPQTLRNLPKSLQVLRLRDNYLAFFKWWSLHFLPKLEVLDLAGNQLKALTNGSLPAGTRLRRLDVSCNSISFVAPGFFSKAKELRELNLSANALKTVDHSWFGPLASALQILDVSANPLHCACGAAFMDFLLEVQAAVPGLPSRVKCGSPGQLQGLSIFAQDLRLCLDEALSWDCFALSLLAVALGLGVPMLHHLCGWDLWYCFHLCLAWLPWRGRQSGRDEDALPYDAFVVFDKTQSAVADWVYNELRGQLEECRGRWALRLCLEERDWLPGKTLFENLWASVYGSRKTLFVLAHTDRVSGLLRASFLLAQQRLLEDRKDVVVLVILSPDGRRSRYVRLRQRLCRQSVLLWPHQPSGQRSFWAQLGMALTRDNHHFYNRNFCQGPTAE
B1 was tested. Which percent of TLR9 as dimers (no DNA) [1] did it give?
The percent of TLR9 as dimers (no DNA) was 79.1%.

And the percent of TLR9 as dimers (with CpG DNA) [1]?
Its percent of TLR9 as dimers (with CpG DNA) is 82.6%.

And the percent of TLR9 as dimers (with non-CpG DNA) [1]?
Its percent of TLR9 as dimers (with non-CpG DNA) is 82.6%.

And the stoichiometry N [1]?
The stoichiometry N was 2.

What about the stoichiometry N [2] of the same binder?
Its stoichiometry N is 2.
